Laboratory results as given in a protein production outcome set (Wang et al. 2014).

experiment: label from the status in PepcDB records
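Note: failed if final PepcDB status was selected cloned or expressed and not failed if soluble or beyond.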

Sequence | protein production
MEIKYLSLCILAGILFVSQVNASENNGKDDVKYAALTQKDLDALPVEKRASVLDELGFIHEYGIGVPMNRERALQYYKQACELGGNYGCYNVKYAYQYGDGVAKDSAQANKYAKKMNLDNLLIEQEYIDKFSQGIYAAKVLADTDKSQRPEFINALFNLLNNRPESDALFFSRIGFNQEKTFRLATLWVQDGDPQMDYQLGLLTLNDFSGHYVDEPYKARPASLKWFRAATEKGVVEAQSLLGGIYSGGEGDEWGIKPDIQEAQKWYGQAAEQGDSDAQIALGKIYYSGATGRTDYAKALALFTQVENDGTNSRSTMPLSWMYYNGLGTAPDCDKAWSYYKKASRYVGKKVEEKIFLSKCAADIQSRKNNADALPRVTLKKASIFSRGITAKPKECALIFQIGTDKIRNMANLHITLELKNADGMATEETLMIPPFGLNTLGIDMQNHDVDPLVTPYDLPLYTQDFCHGIGDIHFTLKSATATINGKNVDLLKADSVRFLDKE | failed
MEILQFIGYGNMAQAILEGAHEILSKRFILEITGRNPEKIAPFLQEKNIQAQIVPYKDAIDIHQKFVFLLFKPYNLKDFNYQGQAKSVLSALAGVGFKALSDAIDSLHYLKCMPNIASKFALSSTAVCEKSPMPLISQKALSVIESFGNCVRVGHEELVDASVATNGSALAFLSLVANSLKDAGIREGLNARGSLELVKMSFKGFAKLLEKERPEMIIEQICTPKGATIEGLSVLEKKGVRGAFIEACHKSVKKMRL | failed
MEINADFTKPVVIDTDQLEWRPSPMKGVERRMLDRIGGEVARATSIVRYAPGSRFSAHTHDGGEEFIVLDGVFQDEHGDYPAGTYVRNPPTTSHVPGSAEGCTIFVKLWQFDPADRTQFSKNMEAELGAPVEGISTSLLHEDERETVTHRKLEPGANLTSEAAGGIEVLVLDGDVTVNDEVLGRNAWLRLPEGEALSATAGARGAKIWMKTGHLRFVRTPEV | not failed
MEINNNISSTIPLVDIVLVFCYVFSFYVIGPLTSSVIIALPLMFCCLYKKKWGYCLLLELKNSFIVRIFISQWLLIGIAVFYSCLHLTMELEYIKVLIAQMFHFICGIFIIIYLKYQKQYTTLKIEQTIIWAFLVQSIIQLIAMSIPSFAHFILYFSRAHDLQDAYGGGVRGLALSSGVGWSLGLAYGLIYIVFVKRYLLSGVNMKSTLIGILLLMGTIFAGRTGFVGACLGGIFFIISNQLSYRTKLMFVLKILLGVILFFLCIYFLFPSMTEHLVDNVFPFAFEPFYKMYYNDEFSTSSTDRLEEMWRVSTSVEEILYGSGSFIDTITGAYYKHIDIGILRNLFYWGIGGYILLIIYQLILIAPIKYNKIQRVSHFNMFFYKLLIIVYLFLLECKAVTIGLNKMTFSVIFLIAYFYFDEIHSKKYIAELR | failed
MEIRTLALKTPEGQPFTMWIYQHDQFTLFPDDRLWPLALIFPGGGFAGYSEREVEAVALKFIAKGYQAAVVKYNLTSDGPFYPTAATIGLAALSYVKRHAQELNADFDHVVVSGFSAGGHLVAVMTALGAQSEFLNNHGFEETKLVPFAQILSYPVIDLTMGFPTSQHEMMAVTTDESYWHAQELVTSQTPPTFIWATRTDELVPVVNSLVYLAALGEHNVPFESHIYAAGVHGLAFGDLADSRYHHPEDVVPRVQNWFPMALGWLRTLYASKNSTEILEHHHHHH | failed
MEISSGGSGMATRARGVVRDGTRALVLAVVGLPGALVLYVLAVVSLLLVPLGVGIVTTPWVLAGVRGFADWRRVVAAEWCGVRIPSGYRPVPVDANPWGRCFRLLSDRATWRDLIWLQVDMTAGFVTALLPAALLFYPLEGFALAAGLWRVFTDGTYIGWWYAFVPVSGQASALAAGALGVVFLVASYHLTPSLLRVHFLLTRAVLAPGQGELAERVRVLTETRRAAVDTSAAELRRIERDLHDGAQARLVAMGMDLGTIEALIEKDPAKARELLARARKSSADALTELRDLVRGIHPPVLAERGLGDAVRALALRVPIASEVNVDFDGRRAAAPVESAAYFAVSEVLTNAVKHAGADRVWIDLRHSDGMLRIAVTDNGRGGARIGTGSGLAGIERRLGTFDGVLAVSSPAGGPTMVSLEIPCELS | failed
MEIVQEGIAKIIVPEIPKTVSSDMPVFYNPRMRVNRDLAVLGLEYLCKKLGRPVKVADPLSASGIRAIRFLLETSCVEKAYANDISSKAIEIMKENFKLNNIPEDRYEIHGMEANFFLRKEWGFGFDYVDLDPFGTPVPFIESVALSMKRGGILSLTATDTAPLSGTYPKTCMRRYMARPLRNEFKHEVGIRILIKKVIELAAQYDIAMIPIFAYSHLHYFKLFFVKERGVEKVDKLIEQFGYIQYCFNCMNREVVTDLYKFKEKCPHCGSKFHIGGPLWIGKLWDEEFTNFLYEEAQKREEIEKETKRILKLIKEESQLQTVGFYVLSKLAEKVKLPAQPPIRIAVKFFNGVRTHFVGDGFRTNLSFEEVMKKMEELKEKQKEFLEKKKQG | not failed
MEIVYVYVKKRSEFGKQCNFSDRQAELNIDISPNPELAALYVERNPVDTGIQCSASMSEHEANTERFEMENCGVNHVEGGWPKDVNPQELEQTIRFRKKVEKDENYINAVMQLGSIMEHCIKQNNAIDIYEEYFDDEEAVEVTEEAPSAKTINVFRDPQEIKRTATHLSWHPDGNKKLAVAYSCLQFQRSPMGMSHDSYIWDLENPNRPEIALKPSSPLITLEYNPKDSHVLLGGCYNGQIACWDTRKGSLVAELSTIEFSHRDPVYGTIWLQSKTGTECFSASTDGQVMWWDIRKISEPTEVVIMDITRKEQLENALGAISLEFESTLETPFQMGRGLGCILSRRPELKQQNEKLEGKPLTLPSHHRVPVRLGFYPCFPTNKRGLGDTCRSWLSPSSWAQGTKLRLSVLVANAVEPVTAWAAFTHMQSLHTQEHTVSTLGRFYFMYKQISKILTRTLTGASSVLKVCDDPLFCLRVQDTGCLIACGSELGTTTLLEVSSSLSTLQRNERNIASSIFERETRREKILEARHREMRLKEKGKAEGRDDDQKEEETALDLDELVNKAEEEFFEVIFAELKRKEAEALKKKPKPKKASIEVEGEDELEDIAGEEEESGIIMGEDTGEDDMDEKNEGGAP | failed
MEKADIEAIFARSRFISAMNLEILDIDHAGSRFSVRMPLQDTYERGAPGTKQFHGGALAALIDVVGDFAIGMLVGGGVPTMNLRIDYLRPAVGDYVDGVAVVRKAGKSAAVVDIDILCPAGKLVAIGRGTYVPITGLEHHHHHH | failed
MEKAMPESFVVRREAHLAAPPAAVFALMTDPEKILRWMGTEAEVEPEPGGLYLVNVTGARFARGSFREVVPVHRLAYSFGWDGSEVVPPGSSLVEIDLIEQGGGTLLRLTHSGLPSAEQCAGHEEGWAHYLGRLTEVAAGRDPGLEHHHHHH | failed
MEKFLTTTYKELNSSMYKFSKGLTLVLFSLALSACSSSPEDNDIAAKTSPDELYSQARTSMELGNYSKAVRSLEALDSRFPFGPHKTQVQLDLIYAYYKMDDVASGIANIDRFIRLNPTHPNIDYVYYMRGLVNMQADSYLFHDMLNIDRTDRDPKNAQDAFKDFDRLIKTYPNSKYAADAQKRMLSLKNRLAKYSIQVAEYYIKMNAWSAAAVRAQSVLETYPGTPSTERALEIMAEAYGELGQNQLKQNVLMVMQANFPNNEILSN | failed
MEKIERLRSAFDEAGIDGILLTNEHSRRYMANFTGTAGVVLISKKRAQFITDFRYVEQASKQAVGYEIVQHAGLIIDEVAKQVKELGIQKLGFEQDTLTYSSYSAHKEAIDAEFIPTSGLVEKLRLIKTDSEIKILKEAAQIADAAFEHILSFIRPGVSEIEVSNELEFFMRKQGATSSSFDIIVASGLRSALPHGVASEKVIETGDFVTLDFGAYYKGYCSDITRTIAVGEPSDKLKEIYNIVLEAQLRGVNGIKAGLTGREADALTRDYITEKGYGEYFGHSTGHGIGLEIHEAPGLAFRSDTVLEPGMAVTVEPGIYIPGIGGVRIEDDIIVTSEGNEVITKSPKELIIL | not failed
MEKIGETMAKLGQNTRVNSDQLIQTILADPEVASFISQHHLSQEQINLSLSKFNQFLVERQKYQLKDPSYIAKGYQPILAMNEGYADVSYLETKELVEAQKQAAISERIQLVSLPKSYRHIHLSDIDVNNASRMEAFSAILDFVEQYPSAEQKGLYLYGDMGIGKSYLLAAMAHELSEKKGVSTTLLHFPSFAIDVKNAISNGSVKEEIDAVKNVPVLILDDIGAEQATSWVRDEVLQVILQYRMLEELPTFFTSNYSFADLERKWATIKGSDETWQAKRVMERVRYLAREFHLEGANRRLEHHHHHH | not failed
MEKKEMEKLCQRCKQSYTDLSNETSSCRFHPSFFVCRRHDDQKRYYELKPDDPPYAAKFYDCCGAEDPNAPGVKDLACDLSAGYCLEPLLALHTATE | failed
MEKLGQFIINHWQLWLAFVVVVFLIFINEILSQRKKAKEVSPQSLVDLMNNGNAIVIDIRDKESFKNGHIINSMNVNPDDFEQQKMSKYKDKPIILVCARGLQSPTLAMKIRNQGYQPLVLSGGIQAWQNADLPLVKGK | failed
MEKNLLRSALKIFEKKDLSLLAYSGRSIFESKDSGLKPVVELFKRFDNLEGSLVIDKMVGKAAASFLLKMKPDHIHAKVISKPALKLMNEYGQSFSYDEKIPFVLGKDGKSMCPFEKLVLEMDDPEEIIRIVLSKFTSL | not failed
MEKVVTLNHDLPLLHFPNSRKPFSIPSPILRISSFKRHKKRSCLASSSRLGFYTETKTVSESHGVIVDNSTIGRRLLGLAAAVSVAVSLSIFCDSPALAESLTIAFPVSRAREVIETMVEMFPLRSADAAYGKLKAMLSTLGDPFTRLITPKEYQSFRIGSDGNLQGVGLFINSEPRTGHLVSDQTHLETQISLVFGLFVHFLSMNPADRAGIHEGEELVEINGEKLDDVDSEAAAQKLRGRVGTFVTIKLKNVLFGTDSGIREVTVTAVSVRCVKLPRDYIKLSPISSAIIPHTTPDGRLAKTGYVKLTAFSQTAASDMENAVHEMENQDVQSYILDLRNNPLLAIPYQGGLVRAGLDVAQLWLDGDETLVYTIDREGVTSPINMINGHAVTHDPLVVLVNEGSASASEILAGALHDNGRAILVGNRTFGKGKIQSITELNDGSALFVTVAKYLSPSLHEIDQVGIAPDVQCTTGMIDSLTAEIVEKMNSSVPLLEADSCVMVAEHELEARRSNGTAS | failed
MELFEFLLIKYGYIALILILTGGIVGLPIPDEVLLTLVGYYISLGKMSYVLALLASFLGATLGISISYFLGTKLGLPFLMKYGPKFHISHQKIDHAQALFRKYGPILLFIGYFLPGVRHVTGYLSGLSKCKFRTFSLYAYTGAFIWCLVFITLGHEIGNKWYIVEKYLFKSSFLLFLLILCVIGYFIVRNKRMEKNAEKK | failed
MELFGSFAFFGGALFGGLGLLLYRALGLPWRLGYRHLIGALCLAVWLAVFWTRPYQPLGLLAVASAALWAMRRGYLPTWAAVLLTMAPLLLLKCGITTMTGMLGLSFATFRAVDVLLFAPRNERISPLDYCIYLFFPLTLLAGPMYRWRNFQADLKRGYEGVTLETWLAGLELLIFGVIQKFGVAEAIWRYGLNTLDAHDYSLTGVALNASLYSFYLFFDFAGYSSMAIGVGMLFGFTLPVNFRNPLASANPQDFWRRWHISLSEWLRDVVFMPIYKALSKTAFFGRHRLAAQNIGILATLLAMGVWNGLALHYVVSGLMFGAYSVGHNLLVQHARTRPALQAFLARRPVQWAGRALTLILAALALYVFSGRSPI | failed
MELIVPILAAAYLAVLLVKTAAALWVVRGERLRPARSAVATPADVAILQPILGGDAHLQEVLAANVQALPQAQFIWLLDTDDGPGNAAADAVVAQYPQLRIARMLVPPAPPGINPKAWKLDYALPHIDAPVSLILDDDAHLGDRALSQLLLDLAHADVVTALPYYRDSATLAGRLLAQFVNNNAALTYLGWLPFAAPLTINGMCYAARTEQLRRWGGFTALLEQLTDDLAFATLVRDRGGRLWQSTAPVAMRTDMPDLRGYVRQMHRWMLFASILLGRQRLRVRSAIGVLQGLPPVLLLAMLVCACVQHTWPAALCVLIVLLARALLLCGVQWRVTGAVRHRLLLSLCAECLQPLHLLHAALVRTIRWRTRRYRVLPDGCFRAE | failed
